Experimental data: US20100292303A1, “GENE EXPRESSION PROFILE FOR PREDICTING OVARIAN CANCER PATIENT SURVIVAL” (priority 2007, published 2010)

How the values were obtained:
[1] = system: ovarian cancer cells SKOV3; assay: SKOV3 ovarian tumor growth and microvessel density in nude mice; format: in vivo
Experimental: The MAGP2 siRNA molecule had the following sequence: 5′-[…]-3′ (sense; SEQ ID NO: 1) and 5′-[…]-3′ (antisense; SEQ ID NO: 2). Five stable clones were selected for each group. A total of 5×10^5 cells from each clone were injected subcutaneously into the posterior neck region of 5 nude mice (6 to 8 week-old female nude mice, Charles River, Mass.). After 4 weeks, the mice were sacrificed and the tumors developed from each mouse were removed and weighed. They samples were subsequently fixed in formalin and processed for histological evaluation. MAGP2 expression in tumor tissues was evaluated using a rabbit anti-human MAGP2 antibody and the microvessel density was determined by immunolocalization of CD34+ blood vessels using a goat anti-mouse polyclonal antibody (FIG. 8A). Significant difference in the weight of the tumors between the MAGP2 siRNA and the control group were found as determined by Mann-Witney U test (FIG. 8B). A p value <0.05 was considered as significant.

αvβ3 integrin receptor = αvβ3 integrin receptor (human, UniProt P06756 31-1048; P05106 27-788); assay: cell-based or functional assay
Chain of αvβ3 integrin receptor (P06756 31-1048, chain 1 of 2): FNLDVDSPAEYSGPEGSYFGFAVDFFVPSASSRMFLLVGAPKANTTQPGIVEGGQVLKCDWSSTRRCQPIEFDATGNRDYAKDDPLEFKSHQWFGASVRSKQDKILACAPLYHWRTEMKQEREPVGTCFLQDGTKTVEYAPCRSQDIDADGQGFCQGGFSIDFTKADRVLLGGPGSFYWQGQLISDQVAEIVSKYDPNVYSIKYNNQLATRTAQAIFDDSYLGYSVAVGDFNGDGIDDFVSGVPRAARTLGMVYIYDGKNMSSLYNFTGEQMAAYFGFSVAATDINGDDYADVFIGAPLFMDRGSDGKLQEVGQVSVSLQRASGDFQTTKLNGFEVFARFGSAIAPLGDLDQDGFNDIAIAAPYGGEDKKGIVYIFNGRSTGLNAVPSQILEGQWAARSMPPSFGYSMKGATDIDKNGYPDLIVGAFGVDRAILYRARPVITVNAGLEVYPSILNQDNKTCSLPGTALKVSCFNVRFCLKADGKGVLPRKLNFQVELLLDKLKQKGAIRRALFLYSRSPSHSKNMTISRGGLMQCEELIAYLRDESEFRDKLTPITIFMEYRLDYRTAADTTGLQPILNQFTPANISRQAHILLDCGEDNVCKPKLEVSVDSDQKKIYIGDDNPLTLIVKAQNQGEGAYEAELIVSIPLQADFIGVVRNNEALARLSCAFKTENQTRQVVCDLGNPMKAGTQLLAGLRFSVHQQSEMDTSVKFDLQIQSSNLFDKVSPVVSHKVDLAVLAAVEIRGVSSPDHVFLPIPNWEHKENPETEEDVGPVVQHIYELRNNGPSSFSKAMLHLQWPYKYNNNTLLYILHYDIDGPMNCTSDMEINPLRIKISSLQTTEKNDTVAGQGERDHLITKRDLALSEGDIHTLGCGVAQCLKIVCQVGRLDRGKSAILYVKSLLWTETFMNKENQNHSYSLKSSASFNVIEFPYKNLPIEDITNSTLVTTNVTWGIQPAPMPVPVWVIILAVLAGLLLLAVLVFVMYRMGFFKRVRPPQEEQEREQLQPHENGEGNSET
Chain of αvβ3 integrin receptor (P05106 27-788, chain 2 of 2): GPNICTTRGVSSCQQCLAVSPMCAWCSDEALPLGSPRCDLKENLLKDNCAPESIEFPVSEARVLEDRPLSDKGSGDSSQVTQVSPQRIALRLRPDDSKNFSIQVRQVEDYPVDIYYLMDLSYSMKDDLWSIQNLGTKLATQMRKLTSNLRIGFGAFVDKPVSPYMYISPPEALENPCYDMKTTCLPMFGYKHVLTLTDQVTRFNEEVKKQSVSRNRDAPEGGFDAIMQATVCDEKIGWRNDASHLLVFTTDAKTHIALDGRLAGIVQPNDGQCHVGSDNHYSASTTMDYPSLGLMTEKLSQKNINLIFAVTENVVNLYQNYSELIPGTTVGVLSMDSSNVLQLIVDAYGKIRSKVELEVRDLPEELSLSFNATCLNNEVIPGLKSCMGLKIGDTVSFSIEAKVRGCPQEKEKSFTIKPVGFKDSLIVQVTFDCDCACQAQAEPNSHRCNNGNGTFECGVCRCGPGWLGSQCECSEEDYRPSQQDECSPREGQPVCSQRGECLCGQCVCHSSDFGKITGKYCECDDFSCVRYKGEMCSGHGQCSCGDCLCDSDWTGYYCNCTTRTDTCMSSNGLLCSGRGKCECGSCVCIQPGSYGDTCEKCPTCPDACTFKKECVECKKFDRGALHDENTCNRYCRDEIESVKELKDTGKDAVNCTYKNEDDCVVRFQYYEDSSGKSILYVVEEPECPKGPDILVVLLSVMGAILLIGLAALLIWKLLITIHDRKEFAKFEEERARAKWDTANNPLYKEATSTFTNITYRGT

A224 cells = assay: A224 ovarian cancer cell adhesion on recMAGP2 coated wells; format: cell-based; conditions: plated on recMAGP2 coated wells, relative to control wells; P<0.0005
From the text: (§1) Cell Lines and Culture Conditions. A224, UCI107 and OVCA429 ovarian cancer cell lines were maintained in RPMI (Invitrogen Life Technologies Inc, Carlsbad, Calif.) supplemented with 10% fetal bovine serum (Gemini Bio-Products, Woodland, Calif.) and 1% L-glutamine (Invitrogen Life Technologies).
(§2) Screening a serous ovarian cancer cell line panel for MAGP2 expression by qRT-PCR (FIG. 4A) and western blot, as well as αvβ3 receptor status through FACs analysis (FIG. 4B, select cell lines only), facilitated the selection of cell lines amenable for downstream examination. Quantitative RT-PCR was performed as described in Example 1. Among cell lines expressing MAGP2, only the SKOV3 cell line co-expressed the αvβ3 receptor. Two cell lines, A224 and OVCA429, were positive for αvβ3, yet lacked measurable levels of MAGP2. These cell lines were chosen for subsequent analyses involving the recombinant protein along with UCI107, which was negative for both the receptor and MAGP2.
(§3) The effect of recMAGP2 on adhesion was evaluated for A224 and UCI107 cell lines.

UCI107 cells = assay: UCI107 ovarian cancer cell adhesion on recMAGP2; format: cell-based; conditions: UCI107 negative for αvβ3 receptor and MAGP2
From the text: as §1, §2, §3

OVCA429 cells = assay: OVCA429 cell survival under increasing concentrations of recMAGP2; format: cell-based; conditions: 200 ng/ml recMAGP2, 96 hours; P<0.01
From the text: as §1
Based on the pathway analysis, αvβ3 mediated signaling was implicated in ovarian tumor cell survival through the stimulation of critical cell-cycle checkpoint regulators. To assess this observation, OVCA429 cells were cultured under increasing concentrations of purified recMAGP2 and harvested at 24-hour intervals.

HUVE cells [2] = assay: HUVE cell motility assay (FluoroBlok insert, recMAGP2 as chemoattractant); format: cell-based, human; conditions: 2.5 hours, compared to medium alone, P<0.05
Experimental: Cell motility was evaluated for HUVE cells (5×10^4) by adding them to the top chamber of a BD Falcon HTS FluoroBlok insert with a PET membrane with eight […] pore (BD Biosciences) in […] of medium with 0.2% FBS. The inserts were placed into the bottom chamber wells of a 24-well plate containing medium with increasing concentrations of recombinant MAGP2. After 2.5 hr, cells that migrated through the pores of the membrane to the bottom chamber were stained with calcein […] (Molecular Probes, Eugene, Oreg.) in PBS for 30 min at 37° C. The fluorescence of migrated cells was quantified using a fluorometer set at 485 nm excitation and 530 nm emission. Parallel control experiments were performed using the MAGP2 elution buffer. HUVECs motility was mediated through αvβ3 integrin, cells were pre-treated either with an anti-αvβ3 integrin antibody (Santa Cruz Laboratories #sc-7312) or with an equal amount of IgG (ICL #RS-90G1) for 30 minutes before the addition of 100 ng/ml MAGP2. The motility assay was then performed as described above.
(§4) To determine the effect of recMAGP2 on the HUVE cell motility, recMAGP2 was used as a chemoattractant. […] Similarly, exposing HUVE cells seeded onto Matrigel matrix to reMAGP2 stimulated a 2-fold increase in invasion (P<0.05) (FIG. 5D).

HUVE cells [3] = assay: HUVE cell invasion through Matrigel; format: cell-based, human; conditions: cells seeded onto Matrigel matrix; P<0.05
Experimental: (§5) HUVE cell invasion was measured by adding cells (5×10^4) to the top chamber of a BD Falcon HTS FluoroBlok insert with a PET membrane coated with a thin layer of Matrigel. To evaluate the effect of MAGP2 on HUVE cell proliferation, 1,000 HUVECs/well were plated in 8 wells of a 96-well plate in EBM2 with 2.0% FBS. The next day the media were removed and replaced with 0.2% FBS media with elute buffer control or with recombinant MAGP2 protein at 4.5 ng/ml. After 2 days, elute control or MAGP2 was added a second time. Cell number was quantified via MTT assay.
as §4

HUVE cells [4] = assay: HUVE cell survival under low serum (MTT assay); format: cell-based, human; conditions: 5 days, P<0.005
Experimental: as §5
In addition to motility and invasion, HUVE cell survival under low serum conditions was prolonged by recMAGP2.

FAK = FAK phosphorylation (tyrosine 407) western blot in HUVE cells; format: cell-based, human; conditions: 100 ng/ml, 30 minutes
Experimental: Western Blot Analysis. To assess FAK phosphorylation in HUVE cells, cells were plated on 60 mm^2 dishes treated with 100 ng/ml MAGP2 recombinant protein or elute buffer control. After 30 minutes the cells were washed with 4° C. PBS and lysed in RIPA buffer containing 0.1% SDS and proteinase inhibitors. Western blotting was then performed with 5 μg of protein under denaturing conditions on a 4-12% NuPAGE gel and transferred to a PVDF membrane. The membrane was blocked in 5% nonfat milk for 1 hr at RT, probed with a 1:1000 dilution of anti-FAK[pY^407] rabbit polyclonal 1° antibody (Biosource) for 2 hr at RT. The blot was washed 3 times for 5 min with TBST and probed with a 1:2000 dilution of goat anti-rabbit HRP conjugated 2° antibody (Amersham) for 1 hr at RT. The blot was washed 3 times for 10 min with TBST and bands were detected via chemiluminscence using an ECL kit (Amersham).
Since FAK is a mediator of αvβ3 signaling, the phosphorylation status of FAK in recMAGP2 treated cells was confirmed. Using a phosphorylation specific antibody recognizing tyrosine 407, a western blot comparing phospho-FAK to total FAK was completed for both treated and untreated HUVE cell isolates.

HUVE cells [5] = assay: Ca2+ oscillation in HUVE cells (fluo-4/AM, confocal microscope); format: cell-based, human
Experimental: To identify the mechanism underlying the stimulation of FAK by recMAGP2, Ca^2+ oscillation was assessed in treated HUVE cells. […] This may account in part for the enhanced motility and survival of HUVE cells as described in the pathway analysis.

HUVE cells [6] = assay: Affymetrix U133 Plus 2.0 microarray of recMAGP2 treated HUVE cells; format: cell-based, human; conditions: P<0.01 and fold-change ≧1.5; treated n=3 vs untreated n=3
From the text: The marked effect of recMAGP2 on HUVE cell behavior indicated a change in cellular regulation had taken place possibly affecting gene expression. To explore the consequences of recMAGP2 induced signaling, Affymetrix® U133 Plus 2.0 microarrays were completed for a series of recMAGP2 treated (n=3) and untreated (n=3) HUVE cell isolates. A total of 274 probe sets were identified for pathway analysis in cells exposed to recMAGP2 (P<0.01 and fold-change ≧1.5) (FIG. 6A). […] Deregulation of these genes may lead to a reduction in vessel integrity permitting endothelial cell migration and neovascularization.

Molecule | weight of the tumors ([1]; SKOV3 stably transfected, subcutaneous, nude mice, 4 weeks, vs empty vector, Mann-Witney U test p<0.05) | CD34 (microvessel density) in tumor tissues ([1]; immunolocalization of CD34+ blood vessels, FIG. 8A) | MAGP2 expression in tumor tissues ([1]; immunostaining, FIG. 8A) | adhesion of HUVE cells plated on recMAGP2 (αvβ3 integrin receptor) [fold] | A224 cell adhesion (A224 cells) | UCI107 cell adhesion (UCI107 cells) | OVCA429 cell survival (OVCA429 cells) | HUVE cell motility (HUVE cells [2]) | increase in HUVE cell invasion (HUVE cells [3]) [fold] | HUVE cell survival under low serum conditions (HUVE cells [4]) | phosphorylated FAK (tyrosine 407) versus total FAK (FAK) | [Ca2+]I levels (HUVE cells [5]; HUVE cells loaded with fluo-4/AM) | [Ca2+]I oscillation frequency (HUVE cells [5]; individual HUVE cells) [s/cycle] | probe sets identified in cells exposed to recMAGP2 (HUVE cells [6])
MAGP2 siRNA: siRNA 5′-ACCGGTTAAACAATGCATTCAT-3′ (sense; SEQ ID NO: 1) and 5′-ATGAATGCATTGTTTAACCGGC-3′ (antisense; SEQ ID NO: 2) (listed as DNA, chemistry not fully specified) | significantly decrease the weight | decreased | decreased MAGP2 expression | – | – | – | – | – | – | – | – | – | – | –
purified recombinant MAGP2 (microfibril associated glycoprotein 2) (ligand, UniProt Q13361 22-173, looked up) IPLGVNSQRGDDVTQATPETFTEDPNLVNDPATDETVLAVLADIAPSTDDLASLSEKNTTAECWDEKFTCTRLYSVHRPVKQCIHQLCFTSLRRMYIVNKEICSRLVCKEHEAMKDELCRQMAGLPPRRLRRSNYFRLPPCENVDLQRPNGL | – | – | – | 2.5 | increase in adhesion | only a modest increase in adhesion at high concentrations | significant difference in survival | increased the motility of the cells in a dose dependent manner | 2 | prolonged | increase in phosphorylated FAK | immediate increase | 100 | 274
